Data set [1] concerns the molecule itself. As to the kind of experiment: cross-linking; COS-7 cells fixed with 4% para-formaldehyde 24 h after transfection, postfixation extraction with 0.2% Triton X-100 (or digitonin); extracts, pellets and unfixed lysates on SDS-PAGE, anti-Myc immunoblot. (In general: A western blot detects proteins with antibodies after separation by electrophoresis.)
Data set [2] concerns the molecule itself. As to the kind of experiment: cross-linking; data not shown: para-formaldehyde fixation, postfixation Triton X-100 extraction, immunoblot.

Experimental findings from paper PMC3538539, “Self-Interaction of Human Pex11pβ during Peroxisomal Growth and Division” (PLoS ONE, 2013) are described below.

Broadly, the stoichiometry N is the number of molecules, sites or subunits per partner or assembly.

B1: HsPex11pβ-Myc (natural protein, human, UniProt O96011 1-259, looked up)
chain: MDAWVRFSAQSQARERLCRAAQYACSLLGHALQRHGASPELQKQIRQLESHLSLGRKLLRLGNSADALESAKRAVHLSDVVLRFCITVSHLNRALYFACDNVLWAGKSGLAPRVDQEKWAQRSFRYYLFSLIMNLSRDAYEIRLLMEQESSACSRRLKGSGGGVPGGSETGGLGGPGTPGGGLPQLALKLRLQVLLLARVLRGHPPLLLDVVRNACDLFIPLDKLGLWRCGPGIVGLCGLVSSILSILTLIYPWLRLKP
notes: human Pex11pβ (HsPex11pβ), peroxisomal membrane protein 11B; also called Pex11pβ-Myc (WT); wild type Pex11pβ-Myc; source: COS-7, transfected; cross-linked in cells, then in detergent extract or lysate; not shown: Myc, C-terminal, kept
In the case of B1, the “stoichiometry N” value in data set [1] is 2.

B2: Pex11pβ-Myc^C18S-C25S-C85S (natural protein, human, UniProt O96011 1-259, looked up)
chain: MDAWVRFSAQSQARERLSRAAQYASSLLGHALQRHGASPELQKQIRQLESHLSLGRKLLRLGNSADALESAKRAVHLSDVVLRFSITVSHLNRALYFACDNVLWAGKSGLAPRVDQEKWAQRSFRYYLFSLIMNLSRDAYEIRLLMEQESSACSRRLKGSGGGVPGGSETGGLGGPGTPGGGLPQLALKLRLQVLLLARVLRGHPPLLLDVVRNACDLFIPLDKLGLWRCGPGIVGLCGLVSSILSILTLIYPWLRLKP
notes: human Pex11pβ with the three N-terminal cysteines replaced by serine; also called triple mutant; source: COS-7, transfected; cross-linked in cells, then in Triton X-100 extract; not shown: Myc, C-terminal, kept
As for B2, the “stoichiometry N” value in data set [2] was determined as 2.
